Series [1] has as its target T1, PbfC (Azospirillum sp. B510, UniProt P0DY71).
T1 construct: synthetic codon-optimised gene in pET28a, N-terminal His tag, expressed in E. coli Tuner (DE3), HisTrap and SEC; noncovalent FAD
T1 sequence (P0DY71 1-415): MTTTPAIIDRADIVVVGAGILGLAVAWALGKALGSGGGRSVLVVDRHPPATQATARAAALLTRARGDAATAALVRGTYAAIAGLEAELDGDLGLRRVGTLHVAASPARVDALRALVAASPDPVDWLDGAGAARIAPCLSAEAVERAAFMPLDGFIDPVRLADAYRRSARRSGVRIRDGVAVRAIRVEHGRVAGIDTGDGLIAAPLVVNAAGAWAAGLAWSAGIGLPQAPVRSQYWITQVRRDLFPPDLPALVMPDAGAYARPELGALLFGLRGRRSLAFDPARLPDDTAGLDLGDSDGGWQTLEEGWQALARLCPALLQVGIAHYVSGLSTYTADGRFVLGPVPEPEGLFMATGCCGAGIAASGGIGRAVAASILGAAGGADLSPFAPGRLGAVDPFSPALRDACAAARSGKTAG
As to the kind of experiment: UV-vis spectra of bound flavin; cofactor released by heat or SDS. Type of series: binding. Particulars: noncovalent; 10 μM FAD added during purification; 50 mM TEA-HCl pH 8.0.

Series [2] has as its target T2, PbfD1 (Acinetobacter baumannii, UniProt P0DY72).
T2 construct: gene pbfD; synthetic codon-optimised gene in pET28a, N-terminal His tag, expressed in E. coli Tuner (DE3), HisTrap; noncovalent FAD
T2 sequence (P0DY72 1-384): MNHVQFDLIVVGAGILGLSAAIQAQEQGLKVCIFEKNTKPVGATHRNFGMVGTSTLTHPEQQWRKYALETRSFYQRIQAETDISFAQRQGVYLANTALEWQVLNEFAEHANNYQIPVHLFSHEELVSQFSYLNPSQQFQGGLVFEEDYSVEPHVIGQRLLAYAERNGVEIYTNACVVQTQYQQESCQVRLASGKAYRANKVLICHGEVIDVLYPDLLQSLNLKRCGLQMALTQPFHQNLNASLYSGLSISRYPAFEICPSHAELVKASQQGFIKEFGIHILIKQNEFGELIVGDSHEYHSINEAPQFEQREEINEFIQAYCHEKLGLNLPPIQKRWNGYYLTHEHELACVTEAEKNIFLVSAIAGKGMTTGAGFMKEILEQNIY
The series is described as above. The series is classed as binding. The settings on record: noncovalent; 10 μM FAD added at lysis; 50 mM TEA-HCl pH 8.0.

Series [3] deals with T3, PbfD2 (Mariniblastus fucicola, UniProt A0A5B9PNB8).
T3 construct: gene pbfD; noncovalent FAD
T3 sequence (A0A5B9PNB8 1-373): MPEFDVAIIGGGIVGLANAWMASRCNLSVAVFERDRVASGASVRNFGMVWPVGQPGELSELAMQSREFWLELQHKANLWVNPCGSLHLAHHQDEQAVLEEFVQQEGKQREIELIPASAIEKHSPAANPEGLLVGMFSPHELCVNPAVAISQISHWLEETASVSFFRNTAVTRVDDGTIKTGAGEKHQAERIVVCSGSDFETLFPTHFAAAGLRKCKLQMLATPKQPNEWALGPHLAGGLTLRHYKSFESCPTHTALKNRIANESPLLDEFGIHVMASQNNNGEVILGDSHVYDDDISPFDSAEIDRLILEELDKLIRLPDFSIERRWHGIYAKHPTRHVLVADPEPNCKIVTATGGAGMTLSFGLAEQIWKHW
Described as above. Type of series: binding. Particulars: noncovalent; 10 μM FAD added at lysis; 50 mM TEA-HCl pH 8.0.

Substrate in series [4]: CNCCP(=O)(O)O
As to the kind of experiment: purified protein.

Substrate in series [5]: NCCP(=O)(O)O
Description: purified protein.

Substrate in series [6]: CN(C)CCP(=O)(O)O
Description: coupled PhnX-ADH assay, NADH A340, Michaelis-Menten fit. The series is classed as biochemical, Acinetobacter baumannii. Particulars: air-saturated (~0.25 mM O2), 50 mM TEA-HCl pH 8.0, 2.5 mM MgCl2, 25°C. The source says: (§1) coupled PhnX-ADH assay, NADH A340, Michaelis-Menten fit on PbfD1

Substrate in series [7]: CNCCP(=O)(O)O
The description is as above. Type of series: biochemical, Acinetobacter baumannii. Particulars: air-saturated (~0.25 mM O2), 50 mM TEA-HCl pH 8.0, 2.5 mM MgCl2, 25°C.
Source text: as §1

Substrate in series [8]: NCCP(=O)(O)O
The series is described as above. The series is classed as biochemical, Acinetobacter baumannii. The settings on record: air-saturated (~0.25 mM O2), 50 mM TEA-HCl pH 8.0, 2.5 mM MgCl2, 25°C.
Source text: as §1

The mark [9] stands for this setting: 80 μM DCPIP, 3 mM PMS, 50 mM TEA-HCl pH 8.0, 25°C.
[10] abbreviates: air-saturated (~0.25 mM O2), 50 mM TEA-HCl pH 8.0, 2.5 mM MgCl2, 25°C.

This is an account of results in paper PMC10590968, “Deciphering the role of recurrent FAD-dependent enzymes in bacterial phosphonate catabolism” (iScience, 2023).

In general, Km refers to the substrate concentration at which the rate is half of its maximum. Broadly, the kcat is the maximal rate divided by the concentration of active sites. The kcat/Km is the second-order rate constant that governs catalysis at low substrate concentration.

Take `Cc1cc2nc3c(=O)[nH]c(=O)nc-3n(C[C@H](O)[C@H](O)[C@H](O)COP(=O)(O)OP(=O)(O)OC[C@H]3O[C@@H](n4cnc5c(N)ncnc54)[C@H](O)[C@@H]3O)c2cc1C` [FAD]: the “UV-vis spectra of bound flavin; cofactor released by heat or SDS” value in series [1], in series [2] and in series [3] was “the spectrum of the released cofactor was typical of FAD” in each case.

B1: PbfC (Azospirillum sp. B510) (protein)
chain: T1 sequence (P0DY71 1-415)
With B1, in series [4] (setting [9]), the Km was 0.20 ± 0.01 mM, the kcat was found to be 9 ± 0.2 s⁻¹ and the catalytic efficiency (kcat/Km) was 45000 ± 2700 M⁻¹ s⁻¹. Also, in series [5] (setting [9]), the Km is 20 ± 1.7 mM, the catalytic constant (kcat) amounted to 2.2 ± 0.1 s⁻¹ and the catalytic efficiency (kcat/Km) is 110 ± 6 M⁻¹ s⁻¹.

B2: PbfD1 (Acinetobacter baumannii) (protein)
chain: T2 sequence (P0DY72 1-384)
notes: synthetic codon-optimised gene in pET28a, N-terminal His tag, expressed in E. coli Tuner (DE3), HisTrap; noncovalent FAD
For B2, in series [6], the Michaelis constant (Km) is 54 ± 14 mM, the kcat came out at 22 ± 4.5 s⁻¹ and the kcat/Km was 400 ± 26 M⁻¹ s⁻¹. For the same molecule, in series [7], the Michaelis constant (Km) came to 5.8 ± 0.62 mM, the kcat was determined as 13.2 ± 0.54 s⁻¹ and the kcat/Km came out at 2300 ± 160 M⁻¹ s⁻¹. In series [8], the Michaelis constant (Km) was 71 ± 16 mM, the kcat turned out to be 9.1 ± 1.7 s⁻¹ and the catalytic efficiency (kcat/Km) was 130 ± 6 M⁻¹ s⁻¹.

B3: PbfD2 (Mariniblastus fucicola) (protein)
chain: T3 sequence (A0A5B9PNB8 1-373)
Consider B3, for which, in series [4] (setting [10]), the Km was 0.36 ± 0.02 mM, the turnover number (kcat) was determined as 4.9 ± 0.07 s⁻¹ and the kcat/Km is 13500 ± 550 M⁻¹ s⁻¹. In series [5] (setting [10]), the Km stood at 2.6 ± 0.32 mM, the kcat is 8.9 ± 0.3 s⁻¹ and the kcat/Km was determined as 3400 ± 320 M⁻¹ s⁻¹.
